Where a chain is given by its changes, count along the chain named. Names and notes keep the numbering of the source.
Legend:
GRG31 EPSP synthase [1] = experiment: Kinetic analysis of GRG31 variants (Ki for glyphosate, Km for PEP, Vmax); type: biochemical; parameters: Vmax: unit not given here; conditions: for Ki: Ki for glyphosate, calculated from plot of Km(app) vs. glyphosate concentration; for Km: Km for PEP; for Vmax: unit not given
Procedure: GRG31 variants L3P2b11, L3P2c11 and L4e11, and L5e3 were characterized by enzymatic assays as described herein, and compared to the native GRG31 enzyme. For each enzyme the apparent Km (Km(app)) was determined at each of several glyphosate concentrations, and a plot of Km(app) vs. glyphosate concentration was used to calculate the Ki for each enzyme. The thermostability for each enzyme was assessed by incubating the enzyme at 37° C. for 16 hours, and then quantifying the enzymatic activity remaining (as Vmax) vs. control enzyme that was incubated at 4° C.

GRG31 EPSP synthase [2] = experiment: Extract prescreens of library clones at a few glyphosate and PEP concentrations; type: biochemical; conditions: for activity in glyphosate prescreen: 0, 1, and 2 mM glyphosate, among 31 resistant clones; for combination of glyphosate resistance and activity at low PEP concentrations: library 3, 0 and 0.2 mM glyphosate, 0, 20, and 50 μM PEP
Procedure: Library 1 was cloned into pAX3625 and 130,000 clones were plated onto plates containing 50 mM glyphosate. […] Extracts were prepared and assessed for glyphosate resistance by assaying activity in the presence of a small number of glyphosate concentrations (0, 1, and 2 mM glyphosate).
Extracts from these six clones were assayed for activity at a range of PEP concentrations (0, 20, 50, and 100 μM PEP).
One hundred and fifteen thousand (115,000) clones were plated onto plates containing 50 mM glyphosate and 384 glyphosate resistant clones were picked for sequencing. […] A Ki assessment of the unique clones was carried out by testing activity at 0 and 0.2 mM glyphosate. […] An assessment of the Km of protein encoded by these nine clones was performed by comparing activity at 0, 20, and 50 μM PEP.

GRG31 EPSP synthase [3] = type: biochemical; conditions: for thermostability at 37° C. compared with GRG31: survival of activity at 37° C., in words
Procedure: The thermostability of several variants of GRG31 was analyzed by measuring survival of activity at 37° C.

GRG31 EPSP synthase [4] = experiment: Thermostability of purified GRG31 variant proteins (4 hrs at 37° C.); type: biochemical; conditions: in words
Procedure: GRG31 variants L3P2b11, L3P2c11 and L4e11, and L5e3 were characterized by enzymatic assays as described herein, and compared to the native GRG31 enzyme. For each enzyme the apparent Km (Km(app)) was determined at each of several glyphosate concentrations, and a plot of Km(app) vs. glyphosate concentration was used to calculate the Ki for each enzyme. […]
Three variants (6b2, 6e7, and the triple EK (N95S A206V E215K; SEQ ID NO:20)) were grown, their proteins purified, and the thermostability of the proteins analyzed in more detail.

GRG36 [5] = experiment: Kinetic constants of GRG36 enzymes (Km, Ki, Vmax); type: biochemical; conditions: for Km: substrate phosphoenolpyruvate; for Ki: glyphosate, (−)x-intercept of Kobs vs. glyphosate concentration
Procedure: The syngrg36 DNA library was transformed into E. coli strain BL21*DE3 star (Invitrogen) for induction of protein expression. Following transformation, individual colonies were plated on 1×M63 medium containing 25 mM glyphosate to select for clones that had retained enzymatic activity and growth tolerance. Individual colonies were picked and arrayed into 384-well plates to create a mutagenized library for enzymatic activity screening. Two 384-well plates were created in this manner. Enzymatic activity screening was carried out as follows. Library clones were pinned into 96-well blocks containing LB medium and were grown to A600=0.6. IPTG was then added (0.5 mM) and the blocks were incubated overnight at 20° C. to induce protein expression. Next, protein extracts were prepared from individual cultures using POPCULTURE® reagent (Novagen) and the enzymatic activity was measured as disclosed in U.S. patent application Ser. No. 11/651,752, filed Jan. 10, 2007, herein incorporated by reference in its entirety. […] These 6 were selected for further characterization.
Additionally, enzymatic assays were carried out to calculate the kinetic constants for substrate binding affinity (Km), glyphosate binding (Ki) and enzymatic rate (Vmax). Briefly, each enzyme was titrated with the substrate phosphoenolpyruvate and the linear enzymatic rate was plotted versus the substrate concentration. This plot was fit to the Michaelis-Menton equation to calculate the substrate concentration that produced one-half of the maximal rate (Km), and the maximal rate obtained at saturating substrate was divided by the enzyme concentration to yield Vmax. Next, additional substrate titrations were carried out at various glyphosate concentrations, and the apparent binding constant at each glyphosate concentration (Kobs) was plotted against the glyphosate concentration to yield a straight line. The Ki was measured as (−)x-intercept.

GRG36 [6] = conditions: for fold higher thermostability at 37° C. than wild-type GRG36: relative to wild-type GRG36
Procedure: Following induction, each GRG36 protein variant was purified by affinity chromatography to a cobalt resin (Novagen). The purified proteins were tested for enzymatic activity following heating for 0, 4 and 6 hours at 37° C.

B1: GRG31pm3b8: GRG31 variant I75→C; P77→N; M82→T, SEQ ID NO:10 (protein)
chain: MNQQVITLTHPSKKIQGTVQLTGSKSESNRALIIQSLSKGQVEIANLSEAADTVTLNRVLQIASDPKPGFNTIDCGNAGTATRFLTAYLNLVKGNFILTGTERMQQRPIGILVDAMKEIGADIHYDKKVGYPPLKIEGGLFQEKDRVKIKGNISSQYISALLLIAPALKKGLTLEIEGELTSRPYVSMTLDMLKSVGIQHEWKNNAIKIAPQAFEKQTIYVEPDWSAASYWYAIAALADANASIVLPGLRKNSLQGDIAIISIMEHFGVQSSFESDGLHLNKKVIGSDVSLFNFKECPDLAQTVVVVAAALKRDVSFTGLETLKIKETDRIAALQKEIAKFGAELIEDGDTYHLKTAQVYQPEEVTFDTYEDHRMAMAFAPLALVFDQIKIAEPQVVEKSYPDFWNHLQAQAFVIE
modifications: GRG31 variant (clone GRG31pm3b8)
Ki (GRG31 EPSP synthase [1]): 116 µM | activity in glyphosate prescreen (GRG31 EPSP synthase [2]; extracts): best activity | activity at low PEP concentrations (GRG31 EPSP synthase [2]; extracts, 0, 20, 50, and 100 μM PEP, among six clones): best activity at low PEP concentrations

B2: L3P2b11: GRG31 variant P77→Q; A81→S; M82→L; Y88→F, SEQ ID NO:13 (protein)
chain: B1 chain with C75I, N77Q, A81S, T82L, Y88F
modifications: GRG31 variant (clone L3P2b11)
Ki (GRG31 EPSP synthase [1]): 983 µM | Km (GRG31 EPSP synthase [1]): 11 µM | improvement in Ki for glyphosate relative to GRG31 (GRG31 EPSP synthase [1]; relative to GRG31, in words): improved | Vmax (GRG31 EPSP synthase [1]): 5.7 | combination of glyphosate resistance and activity at low PEP concentrations (GRG31 EPSP synthase [2]): best combination of glyphosate resistance and activity at low PEP concentrations

B3: GRG31pm3d3: GRG31 Q-loop library 1 variant, SEQ ID NO:12 (protein)
chain: B1 chain with G76D, N77A, Y88F
modifications: GRG31 variant (clone GRG31pm3b3)
activity in glyphosate prescreen (GRG31 EPSP synthase [2]; extracts): best activity

B4: L3P2c11 + triple EK: GRG31 variant Y88→F; N95→S, A206→V; E215→K, SEQ ID NO:23 (protein)
chain: B1 chain with C75I, N77P, T82M, Y88F, N95S, A206V, E215K
modifications: GRG31 variant (L3P2c11+triple EK)
Ki (GRG31 EPSP synthase [1]): 298 µM | Km (GRG31 EPSP synthase [1]): 12.6 µM | Vmax (GRG31 EPSP synthase [1]): 14.4 | t1/2 at 37° C. (GRG31 EPSP synthase [3]): 2.7 h | thermostability at 37° C. compared with GRG31 (GRG31 EPSP synthase [3]): thermostability equivalent to GRG31

B5: L5e3: GRG31 variant P77→T, SEQ ID NO:17 (protein)
chain: B1 chain with C75I, N77T, T82M
modifications: GRG31 variant (clone L5e3)
Ki (GRG31 EPSP synthase [1]): 507 µM | Km (GRG31 EPSP synthase [1]): 11.4 µM | Vmax (GRG31 EPSP synthase [1]): 3.6 | t1/2 at 37° C. (GRG31 EPSP synthase [3]): 10.8 h | thermostability at 37° C. compared with GRG31 (GRG31 EPSP synthase [3]): improved thermostability

B6: L3P2c11 + 6b2: GRG31 variant Y88→F; N95→S, A206→V, SEQ ID NO:25 (protein)
chain: B1 chain with C75I, N77P, T82M, Y88F, N95S, A206V
modifications: GRG31 variant (L3P2c11+6b2)
Ki (GRG31 EPSP synthase [1]): 405 µM | Km (GRG31 EPSP synthase [1]): 7.9 µM | Vmax improvement over the GRG31(L3P2c11) protein (GRG31 EPSP synthase [1]; relative to GRG31(L3P2c11), in words): about four to five-fold | Vmax relative to GRG31 (GRG31 EPSP synthase [1]; relative to GRG31, in words): approximately equal to that of GRG31 | improvement in Ki for glyphosate relative to GRG31 (GRG31 EPSP synthase [1]; relative to GRG31, in words): more than four-fold | improvement in Km for PEP relative to GRG31 (GRG31 EPSP synthase [1]; relative to GRG31, in words): approximately two-fold | Vmax (GRG31 EPSP synthase [1]): 23.4 | t1/2 at 37° C. (GRG31 EPSP synthase [3]): 3.5 h | thermostability at 37° C. compared with GRG31 (GRG31 EPSP synthase [3]): improved thermostability

B7: L3P2c11: GRG31 variant Y88→F, SEQ ID NO:14 (protein)
chain: B1 chain with C75I, N77P, T82M, Y88F
modifications: GRG31 variant (clone L3P2c11)
Ki (GRG31 EPSP synthase [1]): 715 µM | Km (GRG31 EPSP synthase [1]): 39.6 µM | improvement in Ki for glyphosate relative to GRG31 (GRG31 EPSP synthase [1]; relative to GRG31, in words): improved | Vmax (GRG31 EPSP synthase [1]): 5.3 | combination of glyphosate resistance and activity at low PEP concentrations (GRG31 EPSP synthase [2]): best combination of glyphosate resistance and activity at low PEP concentrations

B8: Triple EK: GRG31 variant N95S A206V E215K, SEQ ID NO:20 (protein)
chain: B1 chain with C75I, N77P, T82M, N95S, A206V, E215K
modifications: GRG31 variant (triple EK)
Ki (GRG31 EPSP synthase [1]): 48.2 µM | Km (GRG31 EPSP synthase [1]): 7.2 µM | improvement in Km for PEP relative to GRG31 (GRG31 EPSP synthase [1]; relative to GRG31, in words): improved (lower) | Vmax (GRG31 EPSP synthase [1]): 33 | thermostability compared to wild-type GRG31 (GRG31 EPSP synthase [4]): increased thermostability

B9: GRG36(ace7): GRG36 protein variant, SEQ ID NO:27, encoded by syngrg36(ace7) (protein)
chain: MKNQNFDAKARSPWTPLKGVNKISVSPSKGRINGTVTIPGSKSLTNRALIISSLASGKSKVQGILKSDDSFWCLDSLKKLGVNVKIQGDIAFIEGNGGKWESGDLYIGAAGTIARFLPGALAVSGTGIWELEASKSMSKRPISPQVDALKELGAEITYLSDQGYYPLLVKGKQLNGGEVELSGRISSQFISGLLIASPYLNDPIKINIKDHIVQHSYVLLTLELMKKFGAKVKYDSSLKEIVVYPSKYTPQDINLEADVSTACYFLALAAVTNGKVQIDNLTYETKQPDIKMVDILERMGCKVTRGSSFIEIEGVSQLKGGFEISMREMSDQVLTLAAIAPFADEPITIKDVEHIRHHESNRISVLVDSLSRLGIIVEEFKDGLKVYPGNPKATLLDTHDDHRVAMALSLIGSRVEGIQINDPGCVSKTCPQYFELLEKLGLNIIKH
modifications: GRG36 variant (GRG36(ace7))
Vmax (GRG36 [5]): 1.8 nmol/min/µg | activity at 1 mM glyphosate compared with GRG36 (GRG36 [5]; 1 mM glyphosate): very similar activity | Km (GRG36 [5]): 9.8 µM | Half-life at 37° C. (GRG36 [6]): 18.8 h | fold higher thermostability at 37° C. than wild-type GRG36 (GRG36 [6]): 7.5 fold

B10: GRG36(ace8): GRG36 protein variant, SEQ ID NO:28, encoded by syngrg36(ace8) (protein)
chain: B9 chain with I90T, Q145L, K350T, L410M
modifications: GRG36 variant (GRG36(ace8))
Vmax (GRG36 [5]): 6.8 nmol/min/µg | Ki (GRG36 [5]): 435 µM | Km (GRG36 [5]): 11 µM | Half-life at 37° C. (GRG36 [6]): 7.3 h | fold higher thermostability at 37° C. than wild-type GRG36 (GRG36 [6]): 2.5 fold

B11: GRG36: wild-type GRG36 EPSP synthase, SEQ ID NO:4 (protein)
chain: B9 chain with I90T, Q145L
modifications: derived from organism isolated from soil
Vmax (GRG36 [5]): 8 nmol/min/µg | Ki (GRG36 [5]): 421 µM | Km (GRG36 [5]): 6.3 µM | Half-life at 37° C. (GRG36 [6]): 2.5 h

Reference: US8247535B2, “Directed evolution of GRG31 EPSP synthase enzyme” (Athenix Corp., priority 2008, dated 2012)
